Data published in patent publication US20220048967A1 (published 2022).
Numbered stars: 1 amine (or outer) side, 2 acyl side, 3 side chain; on linkers, the order of the positions; unused ones are H or OH. Square brackets hold non-standard residues; d marks the D form. Side chains are listed from the residue outwards. Ends that are not written are not given here. * marks the point of attachment. C20 diacid = O=C(O)CCCCCCCCCCCCCCCCCCC(=O)*; C18 diacid = O=C(O)CCCCCCCCCCCCCCCCC(=O)*; αMePhe(2-F) = C[C@](N)(Cc1ccccc1F)C(=O)O; γGlu = O=C(O)[C@H](CCC(=O)[*:2])N[*:1]; Desaminohistidyl = O=C(CCc1c[nH]cn1)*; Desaminotyrosyl = O=C(CCc1ccc(O)cc1)*; αMeF = C[C@](N)(Cc1ccccc1)C(=O)O; αMeP = C[C@@]1(C(=O)O)CCCN1; AEEA = NCCOCCOCC(=O)O; Aib = CC(C)(N)C(=O)O

T1: human gastric inhibitory peptide receptor (GIPR) (human, UniProt P48546 22-466)
T1 sequence (looked up): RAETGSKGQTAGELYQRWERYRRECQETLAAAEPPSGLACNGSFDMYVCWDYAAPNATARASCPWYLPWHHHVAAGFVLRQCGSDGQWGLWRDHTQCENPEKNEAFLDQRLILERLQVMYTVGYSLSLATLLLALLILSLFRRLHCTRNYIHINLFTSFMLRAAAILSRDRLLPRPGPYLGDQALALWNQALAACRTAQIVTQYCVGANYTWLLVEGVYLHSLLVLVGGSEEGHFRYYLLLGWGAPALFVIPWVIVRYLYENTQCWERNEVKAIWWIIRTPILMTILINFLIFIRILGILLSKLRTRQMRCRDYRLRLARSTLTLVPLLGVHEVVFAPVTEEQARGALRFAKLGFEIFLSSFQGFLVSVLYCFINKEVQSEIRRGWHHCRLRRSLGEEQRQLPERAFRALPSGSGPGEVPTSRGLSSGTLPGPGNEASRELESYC


Key:
Assay in all cases: cell-based or functional assay
[1] = target: Pro-Link-tagged Human GLP-1R (human, UniProt P43220 24-463)
[2] = target: T1, human gastric inhibitory peptide …
[3] = target: human GLP-1 receptor (GLP-1R) (human, UniProt P43220 24-463)
human GLP-1 receptor = human GLP-1 receptor (human, UniProt P43220 24-463)

| Binder | hGLP1R B-Arrestin2 % Top [1] | hGLP1R B-Arrestin2 Rel EC50 [1] | hGIPR cAMP EC50 ratio [2] | hGIPR cAMP Rel EC50 [2] | hGLP1R cAMP EC50 ratio [3] | hGLP1R cAMP Rel EC50 [3] | hGLP1R GTPgS % Top (human GLP-1 receptor) | hGLP1R GTPgS Rel EC50 (human GLP-1 receptor) |
| --- | --- | --- | --- | --- | --- | --- | --- | --- |
| FXEGTFTSDYSIXLDKKAQXEFIEYLIAGGPSSGAPPPS (not fully specified; Aib2, αMeL13, K17 conjugated to (2-[2-(2-Amino-ethoxy)-ethoxy]-acetyl)2-(γ-Glu)-CO-(CH2)18-CO2H, Aib20, C-terminal amide (NH2)) [Example 338] | 47% | 18.9 nM | – | – | – | – | – | – |
| XXEGTFTSDYSIXLDKKAQXAFVXYLIAGGPSSGAPPPS (D-Tyr1, Aib2, αMeL13, K17 conjugated to (2-[2-(2-Amino-ethoxy)-ethoxy]-acetyl)2-(γ-Glu)-CO-(CH2)18-CO2H, Aib20, D-Glu24, C-terminal amide (NH2)) [Example 361] | 20.2% | 269 nM | – | – | – | – | – | – |
| Y[Aib]EGT[αMeF]TSDYSIXLDKK([AEEA-AEEA-γGlu-C20 diacid])AQ[Aib]EFI[dE]YLIEGGPSSG-NH2 (not fully specified (residue 13); printed as Y-Aib-EGT-αMeF-TSDYSI-αMeF-LDKK((2-[2-(2-Amino-ethoxy)-ethoxy]-acetyl)2-(γ-Glu)-CO-(CH2)18-CO2H)AQ-Aib-EFI-(D-Glu)-YLIEGGPSSG-NH2) [Example 228] | – | – | 3.86 | 0.0503 nM | 1.1 | 0.0282 nM | – | – |
| Y[Aib]EGT[αMePhe(2-F)]TSDYSIXLDEK([AEEA-AEEA-γGlu-C18 diacid])AQ[Aib]EFI[dE]YLIEGG-NH2 (not fully specified (residue 13); printed as Y-Aib-EGT-αMeF(2F)-TSDYSI-αMeF-LDEK((2-[2-(2-Amino-ethoxy)-ethoxy]-acetyl)2-(γ-Glu)-CO-(CH2)16-CO2H)AQ-Aib-EFI-(D-Glu)-YLIEGG-NH2) [Example 220] | – | – | 6.3 | 0.0315 nM | 1.36 | 0.0312 nM | – | – |
| [dY][αMeP]EGTFTSDYSILLDEK([AEEA-AEEA-γGlu-C18 diacid])AQQAFIEYLIEGGPSSG-NH2 (N-terminus assumed; SMILES CC[C@H](C)[C@H](NC(=O)[C@H](CC(C)C)NC(=O)[C@H](Cc1ccc(O)cc1)NC(=O)[C@H](CCC(=O)O)NC(=O)[C@@H](NC(=O)[C@H](Cc1ccccc1)NC(=O)[C@H](C)NC(=O)[C@H](CCC(N)=O)NC(=O)[C@H](CCC(N)=O)NC(=O)[C@H](C)NC(=O)[C@H](CCCCNC(=O)COCCOCCNC(=O)COCCOCCNC(=O)CC[C@H](NC(=O)CCCCCCCCCCCCCCCCC(=O)O)C(=O)O)NC(=O)[C@H](CCC(=O)O)NC(=O)[C@H](CC(=O)O)NC(=O)[C@H](CC(C)C)NC(=O)[C@H](CC(C)C)NC(=O)[C@@H](NC(=O)[C@H](CO)NC(=O)[C@H](Cc1ccc(O)cc1)NC(=O)[C@H](CC(=O)O)NC(=O)[C@H](CO)NC(=O)[C@@H](NC(=O)[C@H](Cc1ccccc1)NC(=O)[C@@H](NC(=O)CNC(=O)[C@H](CCC(=O)O)NC(=O)[C@]1(C)CCCN1C(=O)[C@H](N)Cc1ccc(O)cc1)[C@@H](C)O)[C@@H](C)O)[C@@H](C)CC)[C@@H](C)CC)C(=O)N[C@@H](CCC(=O)O)C(=O)NCC(=O)NCC(=O)N1CCC[C@H]1C(=O)N[C@@H](CO)C(=O)N[C@@H](CO)C(=O)NCC(N)=O) [Example 198] | – | – | < 0.00602 | > 30 nM | 0.337 | 0.139 nM | – | – |
| Y[Aib]EGT[αMePhe(2-F)]TSDYSIXLDEK([AEEA-AEEA-γGlu-C18 diacid])AQ[Aib]EFI[dE]YLIEGGPSSG-NH2 (not fully specified (residue 13); printed as Y-Aib-EGT-αMeF(2F)-TSDYSI-αMeF-LDEK((2-[2-(2-Amino-ethoxy)-ethoxy]-acetyl)2-(γ-Glu)-CO-(CH2)16-CO2H)AQ-Aib-EFI-(D-Glu)-YLIEGGPSSG-NH2) [Example 219] | – | – | 5.86 | 0.0341 nM | 1.03 | 0.0403 nM | – | – |
| [Desaminotyrosyl][Aib]EGTFTSDYSILLDEK([AEEA-AEEA-γGlu-C20 diacid])AQQAFIEYLIEGGPSSGAPPPS-NH2 [Example 199] | – | – | < 0.00602 | > 30 nM | 1.11 | 0.0422 nM | – | – |
| YXEGTXTSDYSIXLDEKAQXEFIXYLIEGGPSSGAPPPS (Aib2, αMeF(2F)6, αMeL13, K17 conjugated to (2-[2-(2-Amino-ethoxy)-ethoxy]-acetyl)2-(γ-Glu)-CO-(CH2)18-CO2H, Aib20, D-Glu24, C-terminal amide (NH2)) [Example 1] | 105% | 5 nM | – | – | – | – | 91.1% | 0.235 nM |
| YXEGTXTSDXSILLDXKAQXEFIXYLIEGGPSSGAPPPS (Y-Aib-EGT-αMeF(2F)-TSD-4Pal-SILLD-Dab-K((2-[2-(2-Amino-ethoxy)-ethoxy]-acetyl)2-(γ-Glu)-CO-(CH2)16-CO2H)AQ-Aib-EFI-(D-Glu)-YLIEGGPSSGAPPPS-NH2) [Example 234] | – | – | 3.83 | 0.0372 nM | 0.317 | 0.0926 nM | – | – |
| XXEGTFTSDYSIXLDXKAQXAFIXYLIEGGPSSGAPPPS (D-Tyr1, Aib2, αMeL13, Orn16, K17 conjugated to (2-[2-(2-Amino-ethoxy)-ethoxy]-acetyl)2-(γ-Glu)-CO-(CH2)18-CO2H, Aib20, D-Glu24, C-terminal amide (NH2)) [Example 357] | 18.2% | 118 nM | – | – | – | – | – | – |
| YXEGTXTSDYSIXLDEKAQXEFIXYLIEGGPSSGAPPPS (Y-Aib-EGT-αMeF(2F)-TSDYSI-Aib-LDEK((2-[2-(2-Amino-ethoxy)-ethoxy]-acetyl)2-(γ-Glu)-CO-(CH2)18-CO2H)AQ-Aib-EFI-(D-Glu)-YLIEGGPSSGAPPPS-NH2) [Example 224] | – | – | 3.52 | 0.0545 nM | 1.06 | 0.0349 nM | – | – |
| XXEGTFTSDYSIXLDKKAQXAFIXYLIEGGPSSGAPPPS (D-Tyr1, Aib2, αMeL13, K17 conjugated to (2-[2-(2-Amino-ethoxy)-ethoxy]-acetyl)2-(γ-Glu)-CO-(CH2)18-CO2H, Aib20, D-Glu24, C-terminal amide (NH2)) [Example 356] | – | > 10500 nM | – | – | – | – | – | – |
| YXEGTXTSDYSIXLDXKAQXEFIXYLIEGGPSSGAPPPS (Aib2, αMeF(2F)6, αMeL13, Orn16, K17 conjugated to (2-[2-(2-Amino-ethoxy)-ethoxy]-acetyl)2-(γ-Glu)-CO-(CH2)16-CO2H, Aib20, D-Glu24, C-terminal amide (NH2)) [Example 2] | 96.1% | 8.82 nM | – | – | – | – | 95.9% | 0.642 nM |
| XXEGTFTSDYSIXLDXKAQXAFVEYLIEGGPSSGAPPPS (D-Tyr1, Aib2, αMeL13, Orn16, K17 conjugated to (2-[2-(2-Amino-ethoxy)-ethoxy]-acetyl)2-(γ-Glu)-CO-(CH2)18-CO2H, Aib20, C-terminal amide (NH2)) [Example 360] | 25.8% | 39.5 nM | – | – | – | – | – | – |
| XXEGTFTSDYSIXLDXKAQXAFVXYLIAGGPSSGAPPPS (D-Tyr1, Aib2, αMeL13, Orn16, K17 conjugated to (2-[2-(2-Amino-ethoxy)-ethoxy]-acetyl)2-(γ-Glu)-CO-(CH2)16-CO2H, Aib20, D-Glu24, C-terminal amide (NH2)) [Example 364] | – | > 12000 nM | – | – | – | – | – | – |
| XXEGTFTSDYSIXLDXKAQXAFVXYLIAGGPSSGAPPPS (D-Tyr1, Aib2, αMeL13, Orn16, K17 conjugated to (2-[2-(2-Amino-ethoxy)-ethoxy]-acetyl)2-(γ-Glu)-CO-(CH2)18-CO2H, Aib20, D-Glu24, C-terminal amide (NH2)) [Example 362] | – | > 11000 nM | – | – | – | – | – | – |
| Y[αMeP]EGTFTSDYSILLDEK([AEEA-AEEA-γGlu-C18 diacid])AQQAFIEYLIEGGPSSG-NH2 (N-terminus assumed; SMILES CC[C@H](C)[C@H](NC(=O)[C@H](CC(C)C)NC(=O)[C@H](Cc1ccc(O)cc1)NC(=O)[C@H](CCC(=O)O)NC(=O)[C@@H](NC(=O)[C@H](Cc1ccccc1)NC(=O)[C@H](C)NC(=O)[C@H](CCC(N)=O)NC(=O)[C@H](CCC(N)=O)NC(=O)[C@H](C)NC(=O)[C@H](CCCCNC(=O)COCCOCCNC(=O)COCCOCCNC(=O)CC[C@H](NC(=O)CCCCCCCCCCCCCCCCC(=O)O)C(=O)O)NC(=O)[C@H](CCC(=O)O)NC(=O)[C@H](CC(=O)O)NC(=O)[C@H](CC(C)C)NC(=O)[C@H](CC(C)C)NC(=O)[C@@H](NC(=O)[C@H](CO)NC(=O)[C@H](Cc1ccc(O)cc1)NC(=O)[C@H](CC(=O)O)NC(=O)[C@H](CO)NC(=O)[C@@H](NC(=O)[C@H](Cc1ccccc1)NC(=O)[C@@H](NC(=O)CNC(=O)[C@H](CCC(=O)O)NC(=O)[C@]1(C)CCCN1C(=O)[C@@H](N)Cc1ccc(O)cc1)[C@@H](C)O)[C@@H](C)O)[C@@H](C)CC)[C@@H](C)CC)C(=O)N[C@@H](CCC(=O)O)C(=O)NCC(=O)NCC(=O)N1CCC[C@H]1C(=O)N[C@@H](CO)C(=O)N[C@@H](CO)C(=O)NCC(N)=O) [Example 197] | – | – | 0.855 | 0.211 nM | 0.189 | 0.248 nM | – | – |
| [Desaminotyrosyl]AEGTFTSDYSILLDEK([AEEA-AEEA-γGlu-C20 diacid])AQQAFIEYLIEGGPSSGAPPPS-NH2 [Example 200] | – | – | 0.0146 | 12.3 nM | 0.573 | 0.0818 nM | – | – |
| [Desaminohistidyl][αMeP]EGTFTSDYSILLDEK([AEEA-AEEA-γGlu-C20 diacid])AQQAFIEYLIEGGPSSGAPPPS-NH2 [Example 201] | – | – | < 0.00602 | > 30 nM | 1.22 | 0.0385 nM | – | – |
